Reference: the supplement of paper PMC9732359
± gives the uncertainty stated by the source.

Assay: protein stability index of a GFP-peptide fusion (yeast GPS) (PSI 1-4); higher = more stable; sorted into four equal gates, so the index is relative within each strain
Procedure, shortened: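 For each peptide, the protein stability index sums the read frequency in every gate after multiplying it by the gate number. Read frequencies came from plasmids that were PCR-amplified from each gate and Illumina-sequenced, with reads assigned to strains by barcodes. The gates were four equal bins of GFP/Cherry fluorescence ratio applied to mid-log yeast in leucine-free medium carrying a pooled library of tiled 17-residue yeast protein peptides fused downstream of GFP on a Cherry-expressing plasmid.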

Row | Sequence | protein stability index (doa10∆) | protein stability index (pdr5∆) | protein stability index (san1∆) | protein stability index (ubr1∆)
1 | SQISPEKQTPNKKDKKK [RPN1] | 2.95 ± 0.063 | 2.9 ± 0.1 | 3.09 ± 0.06 | 3.12 ± 0.069
2 | LLERGRLRKRVTIIPLD [SMC2] | 2.25 ± 0.06 | 2.71 ± 0.059 | 2.26 ± 0.059 | 2.12 ± 0.057
3 | EGDFLKSIIGKLTAERA [POP1] | 1.63 ± 0.14 | 3.23 ± 0.082 | 2.1 ± 0.11 | 3.03 ± 0.12
4 | PAKVEDVQKSSDSSSED [YLR335W/NUP2] | 2.84 ± 0.1 | 2.41 ± 0.097 | 2.4 ± 0.11 | 1.65 ± 0.053
5 | FPQYKLTTFANQVMMDR [ARP7] | 2.6 ± 0.096 | 2.19 ± 0.071 | 2.03 ± 0.13 | 2.4 ± 0.06
6 | KKKRSRTSATREDTPLS [ISW2] | 3.51 ± 0.16 | 3.37 ± 0.083 | 3.45 ± 0.058 | 3.22 ± 0.13
7 | KNFDMLNSMEKDRISHE [PCI8] | 2.33 ± 0.069 | 2.31 ± 0.076 | 2.35 ± 0.08 | 2.4 ± 0.043
8 | YGFEDESAPITAEDSWA [RPB2] | 3.06 ± 0.058 | 3.16 ± 0.055 | 3.35 ± 0.042 | 3.17 ± 0.053
9 | FKRVSQTFEAKLHFKDT [NUT1] | 2.96 ± 0.082 | 3.32 ± 0.1 | 3.41 ± 0.053 | 3.19 ± 0.051
10 | ASDGGLYVPHSENRFPG [RPL5] | 2.19 ± 0.1 | 2.61 ± 0.079 | 2.93 ± 0.095 | 2.92 ± 0.057
11 | YTFKTSMRVKPSASLKL [YMR129W/POM152] | 2.42 ± 0.16 | 2.6 ± 0.11 | 2.31 ± 0.14 | 2.8 ± 0.097
12 | DQWLEEYKKHFPPNLEK [UBP6] | 2.77 ± 0.081 | 3.06 ± 0.053 | 2.88 ± 0.05 | 2.96 ± 0.067
13 | KDLTLCRYSCLALERMV [YCS4] | 2.58 ± 0.23 | 2.36 ± 0.2 | – | 1.79 ± 0.13
14 | ESGEFDFDLFKEVLPDL [YJL039C/NUP192] | 3.43 ± 0.13 | 3.26 ± 0.092 | 3.17 ± 0.063 | 3.23 ± 0.079
15 | QVEYALESISHAGTAIG [PRE9] | 2.34 ± 0.077 | 2.33 ± 0.083 | 2.4 ± 0.082 | 2.52 ± 0.07
16 | RSKFLSTVAKFLARVIK [IRR1] | 3.04 ± 0.07 | 2 ± 0.07 | 2.24 ± 0.11 | 2.2 ± 0.047
17 | KKKKKGSNQKPKYEPPV [RPT2] | 2.94 ± 0.11 | 2.96 ± 0.12 | 2.38 ± 0.22 | 3.12 ± 0.076
18 | EAINGFKDETISKKIIG [SIR3] | 3.08 ± 0.065 | 3.19 ± 0.057 | 2.95 ± 0.082 | 3.09 ± 0.063
19 | YLLTQQQIWKSPNFKNY [SOH1] | 1.73 ± 0.047 | 1.62 ± 0.05 | 1.18 ± 0.081 | 2.19 ± 0.03
20 | ELLREWLETYSENRDKF [IRR1] | 3.34 ± 0.066 | 3.43 ± 0.098 | 3.61 ± 0.078 | 3.51 ± 0.056
21 | PTTTTGGLFGNSAQNNS [YGR119C/NUP57] | 3.11 ± 0.071 | 3.18 ± 0.097 | 3 ± 0.062 | 3.24 ± 0.054
22 | AKGCEVVVSGKLRAARA [RPS3] | 3.15 ± 0.14 | 3.24 ± 0.22 | 3.42 ± 0.14 | 3.25 ± 0.28
23 | LLTPKSGEPIIAATQDF [RPO31] | 2.92 ± 0.16 | 2.57 ± 0.27 | – | –
24 | SPGSPAYSPKQDEQKHN [RPO21] | 3.11 ± 0.15 | 3.15 ± 0.11 | 3.2 ± 0.11 | 3.27 ± 0.11
25 | KRADISKRRITEELSIT [SMC1] | 1.46 ± 0.086 | 1.73 ± 0.078 | 1.72 ± 0.12 | 1.83 ± 0.08

Row | Sequence | protein stability index (doa10∆) | protein stability index (pdr5∆) | protein stability index (san1∆) | protein stability index (ubr1∆)
26 | GNNTELTKTTVNISAVD [YCG1] | 2.98 ± 0.07 | 3.24 ± 0.071 | 3.02 ± 0.054 | 3.12 ± 0.054
27 | RQQKLLLETKLRQQYEI [SWI1] | 3.06 ± 0.11 | 2.93 ± 0.1 | 3.17 ± 0.068 | 2.91 ± 0.11
28 | TTDMISVLYQLSTSAFM [YML031W/NDC1] | 1.42 ± 0.095 | 1.64 ± 0.14 | 1.75 ± 0.24 | 1.14 ± 0.11
29 | VLNCLRTMYFILDGQDV [YJR042W/NUP85] | 1.87 ± 0.083 | 1.42 ± 0.091 | 1.31 ± 0.1 | 1.34 ± 0.078
30 | TSNDASNKKETKKKRKP [ITC1] | 3.08 ± 0.089 | 3.25 ± 0.075 | 3.21 ± 0.088 | 3.29 ± 0.074
31 | IDKLEDLSRIMDWLDNW [ITC1] | 2.58 ± 0.29 | 2.67 ± 0.23 | – | –
32 | LDPALLRPGRIDRKVEF [RPT1] | – | 3.07 ± 0.28 | 3.34 ± 0.068 | –
33 | AVQNESVSSPIELNFDA [QCR2] | 2.95 ± 0.059 | 2.95 ± 0.061 | 2.86 ± 0.065 | 3.06 ± 0.042
34 | HAERDLALAETLKLRAR [SRP68] | 2.95 ± 0.15 | 2.74 ± 0.27 | – | –
35 | ADGLLQVLVCTATLAWG [BRR2] | – | 1.77 ± 0.28 | 2.17 ± 0.18 | 2.14 ± 0.25
36 | LNVVLDDAMEINGEDPA [SMX2] | 3.35 ± 0.067 | 3.31 ± 0.07 | 3.46 ± 0.039 | 3.2 ± 0.067
37 | MFANMKVLGVKDMSPIL [LRP1] | 1.84 ± 0.069 | 1.52 ± 0.046 | 1.41 ± 0.072 | 1.46 ± 0.047
38 | DALVKRFKNSVKWYHFD [PRE7] | 3.19 ± 0.13 | 3.37 ± 0.12 | 3.18 ± 0.072 | 3.08 ± 0.07
39 | AFDLDGTGKSQSGSNSG [ROX3] | 3.44 ± 0.25 | 2.71 ± 0.2 | – | 3.42 ± 0.23
40 | ELQKSLSLEEVEGHLFE [FAS1] | 3.16 ± 0.11 | 3.32 ± 0.16 | 3.35 ± 0.061 | 3.08 ± 0.098
41 | YSPSNEISISFDVNNID [YDL116W/NUP84] | 2.4 ± 0.095 | 2.62 ± 0.071 | 2.31 ± 0.12 | 2.58 ± 0.067
42 | QRLVTPQRLQRKRHQRA [RPS6A] | 2.64 ± 0.059 | 3.13 ± 0.05 | 3.23 ± 0.039 | 3.09 ± 0.035
43 | AKKTSTSTDGKKRSKAR [HTB1] | 3.2 ± 0.25 | 3.12 ± 0.17 | – | –
44 | NLKQANNVAYGKKRFRV [SMC4] | 2.41 ± 0.11 | 2.62 ± 0.077 | 2.09 ± 0.095 | 2.31 ± 0.054
45 | VMIAEIPTLAIDSVEVE [RPB3] | 2.3 ± 0.18 | 2.65 ± 0.11 | – | –
46 | LFGSPPFILEYDLMAPN [YMR129W/POM152] | 2.74 ± 0.075 | 2.9 ± 0.094 | – | 2.94 ± 0.074
47 | LLIHRKGLTYLHLDYNF [PRP8] | 1.77 ± 0.043 | 1.28 ± 0.034 | 1.32 ± 0.079 | 1.56 ± 0.048
48 | ISRNGDTSYKIDGKTVS [SMC1] | 2.72 ± 0.14 | 3.01 ± 0.074 | 2.9 ± 0.064 | 3.29 ± 0.081
49 | MKYVRETSGVTTALLKD [MED8] | 2.72 ± 0.099 | 3.31 ± 0.12 | 3 ± 0.081 | 2.21 ± 0.24
